According to paper doi:10.1101/2020.10.20.346569 (bioRxiv, 2020):
Read-outs that look alike come from different tables or passages of the source.

Experiments:
GST-GSK3β [1] = biological target: T1, GST-GSK3β (UniProt P49841 1-420); assay: pull-down
GST-GSK3β [2] = biological target: T1, GST-GSK3β; assay: pull-down; remark: listed apart in the source

T1 sequence (P49841 whole entry): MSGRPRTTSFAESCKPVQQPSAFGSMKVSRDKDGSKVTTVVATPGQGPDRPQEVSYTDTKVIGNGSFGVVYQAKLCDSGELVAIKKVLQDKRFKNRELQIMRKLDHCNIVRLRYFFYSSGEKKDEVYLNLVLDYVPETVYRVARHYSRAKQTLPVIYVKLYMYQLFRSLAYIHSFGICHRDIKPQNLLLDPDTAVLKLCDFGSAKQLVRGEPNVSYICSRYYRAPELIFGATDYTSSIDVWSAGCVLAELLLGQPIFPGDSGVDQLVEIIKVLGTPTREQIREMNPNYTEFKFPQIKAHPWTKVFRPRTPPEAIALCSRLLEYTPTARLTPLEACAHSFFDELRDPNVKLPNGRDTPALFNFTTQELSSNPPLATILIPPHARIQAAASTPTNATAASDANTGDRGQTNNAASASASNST

Does RLLFQNLWKPRL [peptide e2-I] bind (GST-GSK3β [1])?
Result: binds

B1: His-eIF4E2 (natural protein, UniProt O60573 1-245, looked up)
chain: MNNKFDALKDDDSGDHDQNEENSTQKDGEKEKTERDKNQSSSKRKAVVPGPAEHPLQYNYTFWYSRRTPGRPTSSQSYEQNIKQIGTFASVEQFWRFYSHMVRPGDLTGHSDFHLFKEGIKPMWEDDANKNGGKWIIRLRKGLASRCWENLILAMLGEQFMVGEEICGAVVSVRFQEDIISIWNKTASDQATTARIRDTLRRVLNLPPNTIMEYKTHTDSIKMPGRLGPQRLLFQNLWKPRLNVP
Does B1 bind (GST-GSK3β [2])?
Result: binds
